Source: US20040091878, “Zinc finger domain recognition code and uses thereof” (published 2004)

How the values were obtained:
[1] = molecular target: Zif268 (UniProt P08046 P08046:333-421); assay: EMSA; half-maximal binding; positive control; 0.1 mM ZnCl2
[2] = molecular target: AL1 ZFP (Clone 1, 3-finger, Sp1C domain 2 framework) (artificial); assay: EMSA; half-maximal binding also 18 nM; 10 mM Tris pH 7.5, 100 mM NaCl, 1 mM MgCl2, 0.1 mM ZnCl2, poly(dA-dT)2, on ice; conditions: tags: expressed from pET-21a in E. coli BL21(DE3)pLysS, Bio-Rex 70 purified; label: 5'-32P
Chain of AL1 ZFP (Clone 1, 3-finger, Sp1C domain 2 framework) (artificial) (chain, as listed by the source): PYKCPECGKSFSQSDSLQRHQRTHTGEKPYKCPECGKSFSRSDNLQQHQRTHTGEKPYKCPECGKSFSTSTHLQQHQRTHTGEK

| Binder | apparent K (half saturation) [1] [nM] | Kd [2] [nM] |
| --- | --- | --- |
| Zif268 target probe (dsDNA) DNA 1: TATATATAGCGTGGGCGTTATATATA DNA 2: TATATATAACGCCCACGCTATATATA | 4 |  |
| AL1 target probe (dsDNA) DNA 1: TATATATAAGTAAGGTAGTATATATA DNA 2: TATATATACTACCTTACTTATATATA |  | 18 |
